Results: paper PMC7045643, “Allosteric inhibition of CRISPR-Cas9 by bacteriophage-derived peptides” (Genome Biology, 2020)

System: catalytically inactive Cas9 (dCas9)
Assay: ChIP-qPCR of dCas9 binding at AAVS1 on-target and off-target sites in Hela cells
Assay type: cell-based
Details: AAVS1 on target and pre-determined off-target sites, two biological replicates, Fig. S9
Experimental: For ChIP experiments, low-passage Hela cells were seeded on to 15-cm plates at a density of 4 × 10^6 cells per plate. The next day, a total of 40.5 μg M13 G8PPD or M13 G8PFL plasmid, 20.25 μg 3×Flag-tagged dCas9 plasmid, and 20.25 μg sgRNA plasmid were transfected into cells using Lipofectamine 3000 (Invitrogen). Two biological replicates were performed for each condition. ChIP was performed with Simple ChIP Enzymatic Chromatin IP Kit (Cell Signaling Technology) following the manufacturer’s instructions. After 48 h, the cells were washed once with PBS, and 1.25 mL of 16% formaldehyde (Life Technologies) was added to 20 mL of serum-free DMEM for crosslinking to a final formaldehyde concentration of 1%. After 10 min of crosslinking at room temperature, the cells were harvested for the ChIP assay. The chromatin was sonicated using Branson digital sonifier for 10 cycles of “on/off” pulse with a 30-s interval. Fragmented chromatin was diluted and incubated with 2 μg anti-Flag Chip grade antibody (Sigma, USA) overnight at 4 °C. qPCR with immunoprecipitation-purified DNA as the template was used to analyze the effects of G8Ps on dCas9 binding at the on-target and off-target sites.

B1: M13 G8PFL: full-length M13 phage major coat protein G8P, expressed from plasmid in human cells (protein, UniProt P03619 1-74, looked up)
chain: MKKSVVAKIIAGSTLVIGSSAFAADDATSQAKAAFDSLTAQATEMSGYAWALVVLVVGATVGIKLFKKFVSRAS
modifications: full-length
notes: full-length M13 phage major coat protein G8P, expressed from plasmid in human cells
binding specificity of dCas9 at on-target site: did not significantly improve
